Test results reported in the supplement of paper PMC9732359.
± gives the uncertainty stated by the source.

Test: protein stability index of a GFP-peptide fusion (yeast GPS) (PSI 1-4); higher = more stable; sorted into four equal gates, so the index is relative within each strain
Summary of the method: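 Plasmids in a pooled yeast library fused tiled 17-residue yeast protein peptides downstream of GFP and also expressed Cherry. Mid-log cultures grown without leucine were sorted into four equal gates by GFP/Cherry fluorescence ratio. Each gate's plasmids were PCR-amplified and Illumina-sequenced, and reads were matched to strains by barcodes. The protein stability index is derived by multiplying each gate's read frequency by its gate number and summing the results.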

## EESINEFKSIEIEMKNK [SMC4]
doa10∆
  protein stability index: 3.32 ± 0.21
pdr5∆
  protein stability index: 3.56 ± 0.17
san1∆
  protein stability index: 3.31 ± 0.25
ubr1∆
  protein stability index: 2.86 ± 0.097

## ESDSKLQCHISGTTNFM [UBP6]
doa10∆
  protein stability index: 2.63 ± 0.23
pdr5∆
  protein stability index: 2.69 ± 0.26
san1∆
  protein stability index: 2.92 ± 0.28
ubr1∆
  protein stability index: 3.08 ± 0.15

## AEKSFKPPKNKYKVVRR [SEC65]
doa10∆
  protein stability index: 2.58 ± 0.18
pdr5∆
  protein stability index: 3 ± 0.17
san1∆
  protein stability index: 3.21 ± 0.071
ubr1∆
  protein stability index: 3.16 ± 0.13

## ITLLPSSLKESSPDTMK [SNF12]
doa10∆
  protein stability index: 2.96 ± 0.19
ubr1∆
  protein stability index: 2.27 ± 0.25

## GSQFIVVSLKEGMFANA [SMC2]
pdr5∆
  protein stability index: 3.64 ± 0.24
san1∆
  protein stability index: 3.44 ± 0.2
ubr1∆
  protein stability index: 3.4 ± 0.057

## VQESGNIDYQKGLLIWR [GRR1]
doa10∆
  protein stability index: 3.35 ± 0.091
pdr5∆
  protein stability index: 3.13 ± 0.1
san1∆
  protein stability index: 3.37 ± 0.1
ubr1∆
  protein stability index: 2.75 ± 0.079

## PWGDYLQLETPAEVGRA [BRR2]
doa10∆
  protein stability index: 1.25 ± 0.062
pdr5∆
  protein stability index: 1.8 ± 0.09
san1∆
  protein stability index: 1.47 ± 0.088
ubr1∆
  protein stability index: 1.19 ± 0.049

## TELKKITDKTIKAFMDS [IRR1]
doa10∆
  protein stability index: 2.99 ± 0.065
pdr5∆
  protein stability index: 2.42 ± 0.054
san1∆
  protein stability index: 2.46 ± 0.072
ubr1∆
  protein stability index: 2.52 ± 0.079

## EDDESLGHKELKVRKGH [RPB2]
doa10∆
  protein stability index: 2.29 ± 0.071
pdr5∆
  protein stability index: 2.54 ± 0.067
san1∆
  protein stability index: 2.45 ± 0.076
ubr1∆
  protein stability index: 2.97 ± 0.049

## TISKTVSSTIPRETIPF [FAS2]
doa10∆
  protein stability index: 2.96 ± 0.072
pdr5∆
  protein stability index: 2.96 ± 0.084
san1∆
  protein stability index: 2.75 ± 0.11
ubr1∆
  protein stability index: 2.71 ± 0.052

## VAIQQGDIKPEFSPRLH [YML103C/NUP188]
doa10∆
  protein stability index: 2.45 ± 0.11
pdr5∆
  protein stability index: 2.84 ± 0.096
san1∆
  protein stability index: 3.07 ± 0.099
ubr1∆
  protein stability index: 2.83 ± 0.068

## PSLEKSSFTFGSTTIEK [YLR335W/NUP2]
doa10∆
  protein stability index: 2.17 ± 0.058
pdr5∆
  protein stability index: 2.65 ± 0.086
san1∆
  protein stability index: 1.66 ± 0.15
ubr1∆
  protein stability index: 2.01 ± 0.056

## YNTRKNAVTAAAANNNI [GAL11]
doa10∆
  protein stability index: 2.19 ± 0.046
pdr5∆
  protein stability index: 2.52 ± 0.044
san1∆
  protein stability index: 2.67 ± 0.05
ubr1∆
  protein stability index: 2.46 ± 0.029

## AMFFGNYGSSLQWHAMI [AAR2]
doa10∆
  protein stability index: 2.41 ± 0.093
pdr5∆
  protein stability index: 1.8 ± 0.085
san1∆
  protein stability index: 1.44 ± 0.12
ubr1∆
  protein stability index: 2.15 ± 0.071

## DQKPIEHIKEGSEIAIS [SWI3]
doa10∆
  protein stability index: 2.93 ± 0.058
pdr5∆
  protein stability index: 3.21 ± 0.069
san1∆
  protein stability index: 2.87 ± 0.064
ubr1∆
  protein stability index: 2.92 ± 0.04

## KPQEIKDILVKTGITKK [PRE9]
doa10∆
  protein stability index: 3.39 ± 0.089
pdr5∆
  protein stability index: 3.29 ± 0.086
san1∆
  protein stability index: 2.56 ± 0.22
ubr1∆
  protein stability index: 3.15 ± 0.14

## VCGIIVKQEDMPFNDQG [RET1]
doa10∆
  protein stability index: 3.06 ± 0.16
pdr5∆
  protein stability index: 2.87 ± 0.24
san1∆
  protein stability index: 2.46 ± 0.26
ubr1∆
  protein stability index: 2.49 ± 0.21

## GAELRSVCTEAGMFAIR [RPT1]
doa10∆
  protein stability index: 2.61 ± 0.18
pdr5∆
  protein stability index: 3.4 ± 0.3
ubr1∆
  protein stability index: 3.03 ± 0.23

## SEYSSEASNTPIEHQFN [PRE7]
doa10∆
  protein stability index: 3.16 ± 0.078
pdr5∆
  protein stability index: 3.21 ± 0.072
san1∆
  protein stability index: 3 ± 0.036
ubr1∆
  protein stability index: 3.3 ± 0.1

## ESDLYKLKECPFDMGGY [RPB2]
doa10∆
  protein stability index: 3.13 ± 0.076
pdr5∆
  protein stability index: 3.25 ± 0.087
san1∆
  protein stability index: 3.22 ± 0.068
ubr1∆
  protein stability index: 3.34 ± 0.036

## KKCIDFFEMLISKSLTF [RRI2]
doa10∆
  protein stability index: 2.13 ± 0.055
pdr5∆
  protein stability index: 2.13 ± 0.041
san1∆
  protein stability index: 1.96 ± 0.061
ubr1∆
  protein stability index: 2.27 ± 0.038

## VFVNTGLQNVRKVRTKK [SWP82]
doa10∆
  protein stability index: 2.51 ± 0.16
pdr5∆
  protein stability index: 2.35 ± 0.096
san1∆
  protein stability index: 2.78 ± 0.17
ubr1∆
  protein stability index: 3.11 ± 0.15

## KTFNKIQSQVFESLYNS [BRR2]
doa10∆
  protein stability index: 1.57 ± 0.061
pdr5∆
  protein stability index: 2.04 ± 0.064
san1∆
  protein stability index: 1.25 ± 0.12
ubr1∆
  protein stability index: 1.73 ± 0.054

## KGSRQCRVCSSHTGLIR [RPS29A]
doa10∆
  protein stability index: 2.73 ± 0.06
pdr5∆
  protein stability index: 2.93 ± 0.049
san1∆
  protein stability index: 2.62 ± 0.055
ubr1∆
  protein stability index: 2.9 ± 0.043

## TDAHTPLARNYIKSMDL [RPR2]
doa10∆
  protein stability index: 2.67 ± 0.044
pdr5∆
  protein stability index: 2.73 ± 0.044
san1∆
  protein stability index: 2.68 ± 0.041
ubr1∆
  protein stability index: 2.86 ± 0.032

## FLKVKGLVKQHLDSFNY [RET1]
doa10∆
  protein stability index: 3.09 ± 0.17
pdr5∆
  protein stability index: 3.18 ± 0.1
san1∆
  protein stability index: 2.78 ± 0.29
ubr1∆
  protein stability index: 2.94 ± 0.19

## ARSGLRIGRIEDVTPVP [RPS14A]
doa10∆
  protein stability index: 2.69 ± 0.11
pdr5∆
  protein stability index: 2.91 ± 0.12
san1∆
  protein stability index: 2.92 ± 0.097
ubr1∆
  protein stability index: 2.85 ± 0.072

## YIEDGRNPDIYTREFVE [NUT2]
doa10∆
  protein stability index: 3.39 ± 0.066
pdr5∆
  protein stability index: 3.38 ± 0.054
san1∆
  protein stability index: 3.13 ± 0.044
ubr1∆
  protein stability index: 3.33 ± 0.04

## DPVLDWRKSDRELTKNI [SIR4]
doa10∆
  protein stability index: 2.89 ± 0.096
pdr5∆
  protein stability index: 2.2 ± 0.083
san1∆
  protein stability index: 2.52 ± 0.16
ubr1∆
  protein stability index: 2.26 ± 0.08

## ILECDLLICIGTSLKVA [SIR2]
doa10∆
  protein stability index: 2.05 ± 0.081
pdr5∆
  protein stability index: 1.59 ± 0.061
san1∆
  protein stability index: 2.14 ± 0.15
ubr1∆
  protein stability index: 1.73 ± 0.05

## IVDDYWESLAKKQNLSS [SWP82]
doa10∆
  protein stability index: 2.91 ± 0.073
pdr5∆
  protein stability index: 2.93 ± 0.089
san1∆
  protein stability index: 3.45 ± 0.1
ubr1∆
  protein stability index: 2.96 ± 0.059

## KIQVVDRHIGCVYSGLI [PRE10]
doa10∆
  protein stability index: 1.28 ± 0.12
pdr5∆
  protein stability index: 1.7 ± 0.29
ubr1∆
  protein stability index: 1.36 ± 0.14

## QYYRGLPLYEKNTLLER [SWP82]
doa10∆
  protein stability index: 3.13 ± 0.12
pdr5∆
  protein stability index: 3.34 ± 0.11
san1∆
  protein stability index: 3.13 ± 0.072
ubr1∆
  protein stability index: 3.13 ± 0.049

## NMFGDYSNEPFNTNFDD [SNF6]
doa10∆
  protein stability index: 3.11 ± 0.088
pdr5∆
  protein stability index: 2.78 ± 0.059
san1∆
  protein stability index: 3.06 ± 0.069
ubr1∆
  protein stability index: 2.85 ± 0.045

## LFGSPPFILEYDLMAPN [YMR129W/POM152]
doa10∆
  protein stability index: 2.74 ± 0.075
pdr5∆
  protein stability index: 2.9 ± 0.094
ubr1∆
  protein stability index: 2.94 ± 0.074

## FQLPTTCVSMAPIQLKI [RGR1]
doa10∆
  protein stability index: 1.3 ± 0.051
pdr5∆
  protein stability index: 1.76 ± 0.055
san1∆
  protein stability index: 1.78 ± 0.06
ubr1∆
  protein stability index: 1.67 ± 0.039

## QQIPLLCYMAPMTVKLV [POP3]
doa10∆
  protein stability index: 1.63 ± 0.052
pdr5∆
  protein stability index: 1.57 ± 0.047
san1∆
  protein stability index: 1.78 ± 0.072
ubr1∆
  protein stability index: 1.53 ± 0.057

## PIMQTQMPLNSNGGNNM [SNF2]
doa10∆
  protein stability index: 3 ± 0.059
pdr5∆
  protein stability index: 2.92 ± 0.06
san1∆
  protein stability index: 2.84 ± 0.057
ubr1∆
  protein stability index: 2.62 ± 0.045

## IETEFLLFTVKLKGLMK [IRR1]
doa10∆
  protein stability index: 3.12 ± 0.14
pdr5∆
  protein stability index: 3.06 ± 0.22
san1∆
  protein stability index: 2.98 ± 0.12
ubr1∆
  protein stability index: 3.28 ± 0.12

## SRGGVTQVRVEFLEDTS [RPS28A]
doa10∆
  protein stability index: 3.41 ± 0.071
pdr5∆
  protein stability index: 3.15 ± 0.058
san1∆
  protein stability index: 3.16 ± 0.052
ubr1∆
  protein stability index: 3.22 ± 0.05

## IIGPNGSGKSNMMDAIS [SMC1]
doa10∆
  protein stability index: 3.06 ± 0.13
pdr5∆
  protein stability index: 3.24 ± 0.089
san1∆
  protein stability index: 3.03 ± 0.075
ubr1∆
  protein stability index: 3.28 ± 0.05

## NGKDNNNESNKNNNGDE [MED2]
doa10∆
  protein stability index: 3.12 ± 0.053
pdr5∆
  protein stability index: 3.17 ± 0.042
san1∆
  protein stability index: 3.23 ± 0.034
ubr1∆
  protein stability index: 3.15 ± 0.035

## QRTAQDRVQQDSEDEDS [YML031W/NDC1]
doa10∆
  protein stability index: 2.78 ± 0.089
pdr5∆
  protein stability index: 2.56 ± 0.078
san1∆
  protein stability index: 3.24 ± 0.081
ubr1∆
  protein stability index: 2.91 ± 0.052

## VNIPSFMVRLDSEKHID [RPS9A]
doa10∆
  protein stability index: 2.62 ± 0.081
pdr5∆
  protein stability index: 2.64 ± 0.051
san1∆
  protein stability index: 2.48 ± 0.059
ubr1∆
  protein stability index: 2.2 ± 0.052

## KDVKARIAAGDGDDDDE [QCR9]
doa10∆
  protein stability index: 1.83 ± 0.13
pdr5∆
  protein stability index: 2.29 ± 0.19
san1∆
  protein stability index: 2.12 ± 0.074
ubr1∆
  protein stability index: 2.24 ± 0.12

## ALASIQTFNFDSFENYF [RPN12]
doa10∆
  protein stability index: 2.65 ± 0.048
pdr5∆
  protein stability index: 2.77 ± 0.069
san1∆
  protein stability index: 2.51 ± 0.096
ubr1∆
  protein stability index: 2.82 ± 0.054

## TSSRGRDHKSYSQSPPR [SMC4]
doa10∆
  protein stability index: 2.65 ± 0.046
pdr5∆
  protein stability index: 2.81 ± 0.056
san1∆
  protein stability index: 2.59 ± 0.088
ubr1∆
  protein stability index: 2.83 ± 0.038

## GKEFGTTPEKPEETPLE [FAS2]
doa10∆
  protein stability index: 2.77 ± 0.095
pdr5∆
  protein stability index: 2.7 ± 0.076
san1∆
  protein stability index: 2.6 ± 0.059
ubr1∆
  protein stability index: 2.81 ± 0.069

## HAERDLALAETLKLRAR [SRP68]
doa10∆
  protein stability index: 2.95 ± 0.15
pdr5∆
  protein stability index: 2.74 ± 0.27

## AKGCEVVVSGKLRAARA [RPS3]
doa10∆
  protein stability index: 3.15 ± 0.14
pdr5∆
  protein stability index: 3.24 ± 0.22
san1∆
  protein stability index: 3.42 ± 0.14
ubr1∆
  protein stability index: 3.25 ± 0.28

## NNSGNDNNNTTNNDSNN [MED2]
doa10∆
  protein stability index: 3.13 ± 0.035
pdr5∆
  protein stability index: 3.27 ± 0.033
san1∆
  protein stability index: 3.133 ± 0.023
ubr1∆
  protein stability index: 3.092 ± 0.03

## QIFCVFSGKGVHKLRHY [GRR1]
doa10∆
  protein stability index: 2.67 ± 0.068
pdr5∆
  protein stability index: 2.88 ± 0.061
san1∆
  protein stability index: 3.09 ± 0.066
ubr1∆
  protein stability index: 2.76 ± 0.053
